Test results reported in PMC4209464.

Columns and labels:
[1] = biological target: PfCD mutant Ile138His (Pyrococcus furiosus); experiment: native gel or EMSA
[2] = biological target: Pyrococcus furiosus Chaperonin 60 with Ile138, with the last 22 amino acids deleted (PfCD) (Pyrococcus furiosus); experiment: SEC
[3] = biological target: Pyrococcus furiosus Chaperonin 60 with Ile138, with the last 22 amino acids deleted (PfCD) (Pyrococcus furiosus); experiment: native gel or EMSA

stoichiometry N [1] | stoichiometry N [2] | stoichiometry N [3] | Substance
16 | – | – | PfCD mutant Ile138His (domain or fragment)
– | 16 | 16 | Pyrococcus furiosus Chaperonin 60 with Ile138, with the last 22 amino acids deleted (PfCD) (domain or fragment)
